# Where a chain is given by its changes, count along the chain named.
# B1: TME with deletion of Gln387 (receptor)
# chain: CSVENGGCEHACNAIPGAPRCQCPAGAALQADGRSCTASATQSCNDLCEHFCVPNPDQPGSYSCMCETGYRLAADQHRCEDVDDCILEPSPCPQRCVNTQGGFECHCYPNYDLVDGECVEPVDPCFRANCEYQCQPLNQTSYLCVCAEGFAPIPHEPHRCMFCNQTACPADCDPNTQASCECPEGYILDDGFICTDIDECENGGFCSGVCHNLPGTFECICGPDSALARHIGTDC
# B2: TME with deletion of Met388 (receptor)
# chain: B1 chain with M161Q
# B3: TME with deletion of Phe389 (receptor)
# chain: B1 chain with M161Q, F162M
# B4: TME with Ala inserted between 386 and 387 (receptor)
# chain: CSVENGGCEHACNAIPGAPRCQCPAGAALQADGRSCTASATQSCNDLCEHFCVPNPDQPGSYSCMCETGYRLAADQHRCEDVDDCILEPSPCPQRCVNTQGGFECHCYPNYDLVDGECVEPVDPCFRANCEYQCQPLNQTSYLCVCAEGFAPIPHEPHRCAQMFCNQTACPADCDPNTQASCECPEGYILDDGFICTDIDECENGGFCSGVCHNLPGTFECICGPDSALARHIGTDC
# B5: TME with Ala inserted between 387 and 388 (receptor)
# chain: B4 chain with A161Q, Q162A
# B6: TME with Ala inserted between 388 and 389 (receptor)
# chain: B4 chain with A161Q, Q162M, M163A
# B7: TME with Ala inserted between 389 and 390 (receptor)
# chain: B4 chain with A161Q, Q162M, M163F, F164A
# B8: Recombinant soluble thrombomodulin (Solulin) (receptor)
# chain: EPQPGGSQCVEHDCFALYPGPATFLNASQICDGLRGHLMTVRSSVAADVISLLLNGDGGVGRRRLWIGLQLPPGCGDPKRLGPLRGFQWVTGDNNTSYSRWARLDLNGAPLCGPLCVAVSAAEATVPSEPIWEEQQCEVKADGFLCEFHFPATCRPLAVEPGAAAAAVSITYGTPFAARGADFQALPVGSSAAVAPLGLQLMCTAPPGAVQGHWAREAPGAWDCSVENGGCEHACNAIPGAPRCQCPAGAALQADGRSCTASATQSCNDLCEHFCVPNPDQPGSYSCMCETGYRLAADQHRCEDVDDCILEPSPCPQRCVNTQGGFECHCYPNYDLVDGECVEPVDPCFRANCEYQCQPLNQTSYLCVCAEGFAPIPHEPHRCQLFCNQTACPADCDPNTQASCECPEGYILDDGFICTDIDECENGGFCSGVCHNLPGTFECICGPDSALAGQIGTDCDSGKVDGGDSGAGEPPPSPTPGSTLTPP
# notes: Obtained from PAION; also called sTM; recombinant human soluble thrombomodulin
# Target: thrombin (APC / TAFI activation assays of Examples V, VI and VIII; source not stated for the assay)
# Assay: cell-based or functional assay
row,Binder,cofactor activity (APC assay)
1,B1,< 10 % of wild type TME
2,B2,< 10 % of wild type TME
3,B3,< 10 % of wild type TME
4,B4,< 10 % of wild type TME
5,B5,< 10 % of wild type TME
6,B6,< 10 % of wild type TME
7,B7,< 10 % of wild type TME

# Target: human thrombin (human, UniProt P00734 328-622)
# Assay: equilibrium binding titration in solution; perturbation of DAPA fluorescence (20 nM thrombin, 20 nM DAPA, Solulin titrated), nonlinear regression
# Protocol: The binding of thrombin to thrombomodulin was measured as an equilibrium binding assay. A solution containing thrombin (20 nM), thrombomodulin (1.54 μM), and DAPA (20 nM, dansylarginine N-3-(ethyl-1,5-pentanediyl)amide, a fluorescent, reversible thrombin inhibitor) in 0.02 M Tris-HCl, 0.15 M NaCl, 5.0 mM CaCl₂, 0.01% Tween 80, pH 7.4, was added in small successive aliquots to an otherwise identical solution that lacked thrombomodulin. The additions were performed in a cuvette fitted with a magnetic stirrer in the sample compartment of a Perkin-Elmer model LS50B spectrofluorimeter. Intensity values were continuously recorded with excitation and emission wavelengths of 280 and 545 nm, respectively. A 430-nm cut-off filter was used in the emission beam. The intensity of fluorescence, I, was assumed to be the sum of intensities from thrombin-DAPA (T·D) and thrombin-thrombomodulin-DAPA (T·TM·D). That is, I=i₁·[T·D]+i₂·[T·TM·D], where i₁ and i₂ are the coefficients of fluorescence for T·D and T·TM·D (since excitation was at 280 nm, the emission from free DAPA was negligible).
row,Binder,Kd [nM]
1,B8,23

# — patent US20150005238A1 (PAION DEUTSCHLAND, published 2015)
